The record followed here is PMC3871196 (Experimental eye research, 2011).

The target in this assay is purified Ca/CaM from bovine brain (bovine, UniProt P62157 1-149). Briefly: fluorescence polarisation. In general terms: Fluorescence polarisation rises when a labelled molecule tumbles more slowly, as on binding a larger partner.

B1: PP-C peptide (peptide)
chain: ETWKAFLESVKKLGKG
Turning to B1, the Kd – broadly, the concentration at which binding is half-saturated – came out at 190 nM.
